The source of these data is patent US5434073.

The target in assay [1] is human thrombin (Sigma) (human) (UniProt P00734).
The target of assay [2] is plasminogen (Sigma P-7397).

hirudin-IEGR-hirudin fusion protein gave a specific activity in anti-thrombin units (inhibition of thrombin catalysed hydrolysis of CHROMOZYM TH) in assay [1] of 588 U/mg.

For the substance recombinant hirudin sample, the specific activity in anti-thrombin units (inhibition of thrombin catalysed hydrolysis of CHROMOZYM TH) in assay [1] stood at 6600 U/mg.

As to “thrombin cleavable streptokinase-streptokinase fusion protein”, the streptokinase activity by the S2251 chromogenic assay in assay [2] amounted to 18400 u/ml.
